These results are taken from IntAct's records for PubMed 15299139.

The labels stand for the following.
B1: Axial regulator YABBY 4 (Arabidopsis thaliana (Mouse-ear cress)), Q9LDT3 (parent)
chain: MTKLPNMTTTLNHLFDLPGQICHVQCGFCTTILLVSVPFTSLSMVVTVRCGHCTSLLSVNLMKASFIPLHLLASLSHLDETGKEEVAATDGVEEEAWKVNQEKENSPTTLVSSSDNEDEDVSRVYQVVNKPPEKRQRAPSAYNCFIKEEIRRLKAQNPSMAHKEAFSLAAKNWAHFPPAHNKRAASDQCFCEEDNNAILPCNVFEDHEESNNGFRERKAQRHSIWGKSPFE
partner: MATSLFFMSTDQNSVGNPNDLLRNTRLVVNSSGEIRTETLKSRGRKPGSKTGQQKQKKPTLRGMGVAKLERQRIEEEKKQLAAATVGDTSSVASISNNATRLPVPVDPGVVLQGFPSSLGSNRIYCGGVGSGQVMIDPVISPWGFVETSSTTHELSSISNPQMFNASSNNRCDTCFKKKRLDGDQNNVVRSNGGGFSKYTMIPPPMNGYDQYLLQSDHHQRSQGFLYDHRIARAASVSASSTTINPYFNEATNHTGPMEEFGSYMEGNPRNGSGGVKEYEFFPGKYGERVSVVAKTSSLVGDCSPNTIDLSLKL

This assay covers variants of B1. The conditions noted are these: with spl_arath SPL.
Take MTKLPNMTTTLNHLFDLPGQICHVQCGFSTTILLVSVPFTSLSMVVTVRCGHCTSLLSVNLMKASFIPLHLLASLSHLDETGKEEVAATDGVEEEAWKVNQEKENSPTTLVSSSDNEDEDVSRVYQVVNKPPEKRQRAPSAYNCFIKEEIRRLKAQNPSMAHKEAFSLAAKNWAHFPPAHNKRAASDQCFCEEDNNAILPCNVFEDHEESNNGFRERKAQRHSIWGKSPFE [C29S]: the “effect of a mutation on the interaction” value is on record as “decreasing interaction”.
